In PMC9593262 (iScience, 2022):
No end group written: not given here. *: point of attachment. Biotin = O=C1N[C@H]2[C@H](CS[C@H]2CCCCC(=O)*)N1

Tests used:
[1] = biological target: T1, Recombinant mouse NRP-1 protein (mouse, UniProt P97333 22-856); experiment: plate binding assay read by fluorescence of PE-labelled streptavidin
T1 sequence (looked up): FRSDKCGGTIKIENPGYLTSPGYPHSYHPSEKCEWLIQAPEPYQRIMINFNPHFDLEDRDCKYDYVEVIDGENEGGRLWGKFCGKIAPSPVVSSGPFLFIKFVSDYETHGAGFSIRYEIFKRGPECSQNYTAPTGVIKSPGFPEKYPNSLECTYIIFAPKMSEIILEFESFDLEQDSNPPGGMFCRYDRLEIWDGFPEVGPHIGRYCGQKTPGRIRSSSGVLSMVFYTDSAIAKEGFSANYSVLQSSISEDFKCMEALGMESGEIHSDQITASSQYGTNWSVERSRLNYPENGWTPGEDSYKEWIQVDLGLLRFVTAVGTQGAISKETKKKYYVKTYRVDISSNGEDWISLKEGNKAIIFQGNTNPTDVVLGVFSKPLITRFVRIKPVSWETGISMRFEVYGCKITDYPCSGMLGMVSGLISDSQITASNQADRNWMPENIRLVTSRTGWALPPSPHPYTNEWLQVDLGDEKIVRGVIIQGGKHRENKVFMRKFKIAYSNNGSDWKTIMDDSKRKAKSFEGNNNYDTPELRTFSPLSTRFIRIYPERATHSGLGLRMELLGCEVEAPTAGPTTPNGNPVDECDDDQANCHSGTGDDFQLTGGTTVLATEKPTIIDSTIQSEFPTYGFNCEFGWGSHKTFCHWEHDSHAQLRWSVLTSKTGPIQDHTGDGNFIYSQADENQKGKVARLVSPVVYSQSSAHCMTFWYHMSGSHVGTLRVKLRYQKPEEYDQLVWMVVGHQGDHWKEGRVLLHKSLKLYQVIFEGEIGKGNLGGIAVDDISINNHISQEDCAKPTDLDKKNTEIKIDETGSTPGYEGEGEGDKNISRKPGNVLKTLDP

[2] = biological target: T2, Recombinant nucleolin protein (murine, residues 309–644) (mouse, UniProt P09405 309-644); experiment: as above
[3] = biological target: T2, Recombinant nucleolin protein (murine, …); experiment: plate competition assay read by fluorescence of PE-labelled streptavidin

T2 sequence (P09405 309-644): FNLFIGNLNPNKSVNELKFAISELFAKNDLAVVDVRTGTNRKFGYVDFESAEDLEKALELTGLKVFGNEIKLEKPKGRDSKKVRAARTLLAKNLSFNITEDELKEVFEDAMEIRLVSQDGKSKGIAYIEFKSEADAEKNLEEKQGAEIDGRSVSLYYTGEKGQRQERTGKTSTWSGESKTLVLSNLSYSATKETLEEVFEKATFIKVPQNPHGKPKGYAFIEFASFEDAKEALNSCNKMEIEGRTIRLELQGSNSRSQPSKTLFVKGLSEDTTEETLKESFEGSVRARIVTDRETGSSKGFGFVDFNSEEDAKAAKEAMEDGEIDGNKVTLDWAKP

Biotin-VSYKAIR [biotin-labeled DC-targeting peptide Dp1]: binds [1].

Biotin-VSYKAIRVSYKAIRVSYKAIR [biotin-labeled Dp1×3]: binds [2].

VSYKAIRVSYKAIRVSYKAIR [Dp1×3 (unlabelled)]: binds [3].
